Article PMC6057844 (Biochemical and biophysical research communications, 2018)

Target: the molecule itself

B1: Drp1 in HD mouse striatal cells (natural protein, UniProt Q8K1M6 1-736, looked up)
chain: MEALIPVINKLQDVFNTVGADIIQLPQIVVVGTQSSGKSSVLESLVGRDLLPRGTGVVTRRPLILQLVHVSPEDKRKTTGEENGVEAEEWGKFLHTKNKLYTDFDEIRQEIENETERISGNNKGVSPEPIHLKVFSPNVVNLTLVDLPGMTKVPVGDQPKDIELQIRELILRFISNPNSIILAVTAANTDMATSEALKISREVDPDGRRTLAVITKLDLMDAGTDAMDVLMGRVIPVKLGIIGVVNRSQLDINNKKSVTDSIRDEYAFLQKKYPSLANRNGTKYLARTLNRLLMHHIRDCLPELKTRINVLAAQYQSLLNSYGEPVDDKSATLLQLITKFATEYCNTIEGTAKYIETSELCGGARICYIFHETFGRTLESVDPLGGLNTIDILTAIRNATGPRPALFVPEVSFELLVKRQIKRLEEPSLRCVELVHEEMQRIIQHCSNYSTQELLRFPKLHDAIVEVVTCLLRKRLPVTNEMVHNLVAIELAYINTKHPDFADACGLMNNNIEEQRRNRLARELPSAGSRDKSSKVPSALAPASQEPPPAASAEADGKLIQDNRRETKNVPSAGGGIGDGGQEPTTGNWRGMLKTSKAEELLAEEKSKPIPIMPASPQKGHAVNLLDVPVPVARKLSAREQRDCEVIERLIKSYFLIVRKNIQDSVPKAVMHFLVNHVKDTLQSELVGQLYKSSLLDDLLTESEDMAQRRKEAADMLKALQGASQIIAEIRETHLW
stoichiometry N: 4
